From patent US20100196385A1

How the values were obtained:
[1] = biological target: full length cynomolgus monkey DLL4 (cynomolgus monkey); assay: FMAT, hybridoma supernatant, 293T cells with cynomolgus DLL4
[2] = biological target: full length cynomolgus monkey DLL4 (cynomolgus monkey); assay: FACS titration, HEK293 cells with cynomolgus DLL4
[3] = biological target: full length cynomolgus monkey DLL4 (cynomolgus monkey); assay: FACS competition vs Notch1/Fc, HEK293 cells with cynomolgus DLL4
[4] = biological target: DLL4 extracellular domain (R&D systems, catalog #1506-D4/CF) (UniProt Q9NR61); assay: cell-based or functional assay
Chain of DLL4 extracellular domain (R&D systems, catalog #1506-D4/CF) (Q9NR61 27-529 limits assumed): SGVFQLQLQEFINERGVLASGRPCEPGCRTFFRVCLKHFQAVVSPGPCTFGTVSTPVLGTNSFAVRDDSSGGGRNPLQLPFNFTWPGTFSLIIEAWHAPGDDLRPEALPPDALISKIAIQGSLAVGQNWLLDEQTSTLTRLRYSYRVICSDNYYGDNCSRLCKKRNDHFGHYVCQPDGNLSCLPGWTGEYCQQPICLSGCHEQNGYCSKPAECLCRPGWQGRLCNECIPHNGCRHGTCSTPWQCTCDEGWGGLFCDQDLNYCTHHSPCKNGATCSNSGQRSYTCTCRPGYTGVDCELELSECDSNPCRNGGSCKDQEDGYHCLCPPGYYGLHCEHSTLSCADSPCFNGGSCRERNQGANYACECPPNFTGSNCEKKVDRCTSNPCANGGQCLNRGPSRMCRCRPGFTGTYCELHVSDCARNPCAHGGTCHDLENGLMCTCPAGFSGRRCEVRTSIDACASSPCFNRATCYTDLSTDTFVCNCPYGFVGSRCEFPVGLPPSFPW

Row | Binder | Count [1] | FL1 [1] | FL1 x count [1] | other results
1 | 2H10 (antibody, IgG4, V domains shown) VH: QVQLVESGGGVVQPGRSLRLSCAASGFTFSRHGMHWVRQAPGKGLEWVAVVWFDGSNIYYADSVKGRFTISRDNSKNTLYLQMNSLRAEDTAMYYCARDSRIAAADYWGQGTLVTVSS VL: SYELTQPPSVSVSPGQTVSITCSGDKLGDKYVCWYQQKPGQSPVLVIYQESKRPSGIPERFSGSSSGNTATLTISGTQAMDEADYYCQTWDSSLVVFGGGTKLTVL | 103 | 13100 | 1.35e+06 | –
2 | 4B4 IgG1 (antibody, V domains shown) VH: QVLLIQSGAEVKKPGASVQVSCKASGYTFTNYGVIWVRQAPGQGLEYMGWISAYNGNTNYAQKLQDRVTMTSDTSTTTAYMELRSLRSDDTAVYYCARELGSSFDYWGQGTLVTVSS VL: SYELTQPPSVSVSPGQTARITCSGDALPKKYAYWYQQKSGQAPVLVIYEDIKRPSGIPERFSGSSSGTMATLTISGAQVEDEADYYCFSTDNSGDHSVFGGGTKLTVL | – | – | – | Kd [2]: 0.081 nM; IC50 [3]: 0.5 nM
3 | 3A7 (antibody, IgG4, V domains shown) VH: EVQVVESGGGLVQPGGSLRLSCEASGFTFSNYWMIWVRQAPGKGLEWVASIKEDGSEKYYVDSVKGRFTISRDNAKSSLYLQMNSLRAEDTAVYYCVRDWELRGHYYYHGMDVWGQGTTVTVSS VL: DIQMTQSPSSLSASVGDRVTITCRASLDIRNDLGWFLQKPGKAPKRLIYAASSLQSGVPSRFSGSGSGTEFTLTINSLQPEDFATYYCLQHRNYPFTFGPGTKVDFK | 121 | 9960 | 1.2e+06 | –
4 | 20G8 (antibody, IgG4, V domains shown) VH: QVQLVQSGAEVKKPGASVKVSCKASGYTFTSYGISWVRQAPGQGLEWMGWISVYNGNTNYAQKLQGRVTMTTDTSTSTAYMEVRSLRSDDTAVYYCARDRVPRIPRTTEAFDIWGRGTMVTVCS VL: QSVLTQPPSASGTPGQRVTISCSGSSSNIGSYYVYWYQQLPGTAPKLLIYRDNQRPSGVPDRFSGSKSGTSASLAIRGLRSDDEADYYCAAWDDSLSGHWVFGGGTKLTVL | 128 | 11200 | 1.44e+06 | % inhibition 1 µg/ml, AVERAGE (HUVEC proliferation on coated DLL4) [4]: 85%; % inhibition 1 µg/ml, N = 1 (HUVEC proliferation on coated DLL4) [4]: 94%; % inhibition 1 µg/ml, N = 2 (HUVEC proliferation on coated DLL4) [4]: 75%; % inhibition 10 µg/ml, AVERAGE (HUVEC proliferation on coated DLL4) [4]: 98%; % inhibition 10 µg/ml, N = 1 (HUVEC proliferation on coated DLL4) [4]: 103%; % inhibition 10 µg/ml, N = 2 (HUVEC proliferation on coated DLL4) [4]: 93%
5 | 12A1 (antibody, IgG4, V domains shown) VH: QVQLVQSGAEVKRPGASVKVSCKASGYTFTSYGITWVRQAPGQGLEYMGWISTYNGNTDYAQKFQGRVTMTADISTSTAYMELRSLRSDDTAVYYCARERGSYFDYWGQGTLVTVSS VL: SYELTQPPSVSVSPGQTARITCSGDTLPKKYAYWYQQKSGQAPVLVIYEDIKRPSGIPERFSGSSSGTMATLTISGAQVEDEADYYCFSTDSGGNHKFGGGTKLTVL | 106 | 12900 | 1.37e+06 | –
6 | 4B3 (antibody, IgG4, V domains shown) VH: QVQLVQSGAEVRKSGASVKVSCKASGYSFTTYDINWVRQATGQGLEWMGWMNPNSGYTDYAQKFQGRVTLTRNMSIDTAYMELSSLRSEDTAVYYCARAYYYDSSAYYLFDYWGQGTLVTVSS VL: DIQMTQSPSSLSASVGDRVTITCRASQGISNYLAWFQQKPGKAPKSLIYAASSLQSGVPSKFSGSGSGTDFTLTISSLQPEDFATYFCQQYISYPLTFGGGTKVEI | 97 | 12600 | 1.22e+06 | –

Further lines, with some results ahead:

Row | Count [1] | FL1 [1] | FL1 x count [1] | Binder | other results
7 | 120 | 10700 | 1.29e+06 | 17F3 (antibody, IgG2, V domains shown) VH: QVQLVQSGAEVKKPGASVKVSCKASGYTFTNYGISWVRQAPGQGLEWMGWINAYNGNTNYAQNLQGRVTMTTDTSTNTAYMELRSLRSDDTAVYYCARVAPAAFFDYWDQGTLVTVSS VL: SYELTQPPSVSVSPGQTASITCSGDKLGDKYVCWYQQKPGQSPVLVIYQDNKRPSGIPERFSGSNSGNTATLIISGTQAMDEADYYCQAWDSSTVFGGGTKLTVL | –
8 | 117 | 12300 | 1.04e+09 | 4B4 (antibody, IgG4, V domains shown) VH: QVLLIQSGAEVKKPGASVQVSCKASGYTFTNYGVIWVRQAPGQGLEYMGWISAYNGNTNYAQKLQDRVTMTSDTSTTTAYMELRSLRSDDTAVYYCARELGSSFDYWGQGTLVTVSS VL: SYELTQPPSVSVSPGQTARITCSGDALPKKYAYWYQQKSGQAPVLVIYEDIKRPSGIPERFSGSSSGTMATLTISGAQVEDEADYYCFSTDNSGDHSVFGGGTKLTVL | –
9 | 120 | 11700 | 1.41e+06 | 9G8 (antibody, IgG4, V domains shown) VH: QLQLQESGPGLVKPSETLSLSCTVSGGSISSSSSYWGLIRQPPGKGLEWIGSIYYSGSTYYSPSLKSRVSISVDTSKNQFSLKLSSVTAADTAVYFCARQGYGGHPDVFDIWGQGTMVTVSS VL: SSELTQSPSVSVSPGQTARITCSGDKLGDVYVCWYQQKTGQSPVLVIYEDTKRPSGIPERFSGSNSGNTATLTISGTQVMDEADYYCQAWDSTTAVIFGGGTKLTVL | –
10 | 103 | 11700 | 1.21e+06 | 1D4 (antibody, IgG4, V domains shown) VH: QLQLQESGPGLVKPSETLSLTCTVSGGSISSSSYYWGWIRQPPGKGLEWIGSFYYSRSTYYNPSLKSRVTISVDTSKNQFSLKLSSVTAADTAVHYCARGSIAVPDAFDIWGQGTMVTVSS VL: SYELTQPPSVSVSPGQTASITCSGDKLGDKFACWYQQKPGHSPVLVVYQDNKRPSGIPERFSGSNSGNSATLTISGTQAMDEADYYCQAWDSNTAVFGGGTKLTVL | –
